Experimental data published in article PMC13328618, “Heritable immunization of mice against Lyme disease enables ecological disease prevention” (Nature Communications, 2026).

Experiments:
[1] = molecular target: recombinant outer surface protein A (rOspA) of Borrelia burgdorferi (Borrelia burgdorferi) (UniProt P0CL66)
[2] = molecular target: T1, biotinylated OspA protein (Borrelia burgdorferi, UniProt P0CL66, biotin (site not stated)); experiment: BLI; Octet Red96; biotinylated OspA immobilised on streptavidin biosensors; antibody 3.7-300 nM, 180 s association, 600 s dissociation in PBST with 0.1% bovine serum albumin; global fitting; settings: both partners purified
T1 construct: outer surface protein A (OspA), Borrelia burgdorferi; biotinylated for capture on streptavidin biosensors; May be the GenScript rOspA after biotinylation; also called biotinylated OspA proteins
T1 sequence (P0CL66 17-273): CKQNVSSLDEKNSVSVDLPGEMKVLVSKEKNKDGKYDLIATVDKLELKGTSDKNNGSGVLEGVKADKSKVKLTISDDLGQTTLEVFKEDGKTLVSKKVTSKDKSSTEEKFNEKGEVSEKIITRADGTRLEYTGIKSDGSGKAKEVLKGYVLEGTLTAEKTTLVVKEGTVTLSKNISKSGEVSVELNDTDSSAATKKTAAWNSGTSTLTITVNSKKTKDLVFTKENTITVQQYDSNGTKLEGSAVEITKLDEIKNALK

[3] = molecular target: T2, recombinant outer surface protein A (rOspA) of Borrelia burgdorferi (Borrelia burgdorferi, UniProt P0CL66); experiment: ELISA; plates coated with 5 µg/mL rOspA; supernatants of transfected Lenti-X 293T cells 72 h after transfection; detection with mouse IgG2b ELISA kit; settings: one partner purified
T2 construct: outer surface protein A (OspA), Borrelia burgdorferi; recombinant; source: produced by GenScript
T2 sequence (P0CL66 17-273): as above

[4] = molecular target: T2, recombinant outer surface protein A …; experiment: ELISA; plates coated with rOspA at 5 µg/mL; mouse serum applied; detection with IgG ELISA detection kit; purified LA-2 IgG2a as standard; settings: one partner purified

recombinant outer surface protein A (rOspA) of Borrelia burgdorferi (Borrelia burgdorferi), sequence (P0CL66 17-273): as above

## LA-2 scFv-albumin fusion protein expressed in Rosa26-targeted mice
[1]
  xenodiagnosis: engineered (heterozygous) mice free of infection, by spirochetes in larval ticks fed 21 days after challenge with 10 B. burgdorferi-infected nymphs: 80%

B1: full-length LA-2 IgG2a (antibody, V domains shown)
VH: QIQLVQSGPELKKPGETVKISCKASGYTFTDYSMYWVKQAPGKGLKRMGWINTETGEPTYADDFKGRFALSLDTSASTAYLHISNLKNEDTATYFCARGLDSWGQGTSVTVSS
VL: DIQMTQSPSSLSATLGGKVTITCKASQDINKYIAWYQHKPGKGPRLLIHYTSTLQPGNPSRFSGSGSGRDYSFSISNLEAEDIAIYYCLQYDNLQRTFGGGTKVEIK
notes: LA-2 heavy-chain variable region; mouse IgG2a heavy-chain constant region; LA-2 light-chain variable region; light-chain constant region; IgG2a; plasmid constructed by GenScript; source: Expi293F, transfected, purified (Protein A-Sepharose 4B)
[2]
  binding result: binds

B2: LA-2 scFv-Fc with the top-performing linker … (Fc fusion)
VH: B1 VH
VL: B1 VL
notes: LA-2 heavy-chain variable region, as the VH of m3; linker between the heavy and light variable regions; LA-2 light-chain variable region, as the VL of m3; source: Lenti-X 293T, transfected (PEI), in supernatant
[3]
  binding result: binds

B3: LA-2 scFv-Fc with Vh-(G4S)3-Vl linker (Fc fusion)
VH: B1 VH
VL: B1 VL
notes: LA-2 heavy-chain variable region, as the VH of m3; flexible (G4S)3 linker, printed as (G4S)3; LA-2 light-chain variable region, as the VL of m3; Cloned into a modified pcDNA3.4 vector; also called scFv with a Vh-(G4S)3-Vl linker; source: Expi293F, transfected, purified (Protein A-Sepharose 4B)
[2]
  binding result: binds

B4: full-length LA-2 monoclonal antibody expressed in liver-specific knock-in mice (antibody, V domains shown)
VH: B1 VH
VL: B1 VL
notes: LA-2 heavy-chain variable region, as the VH of m3; mouse IgG2a heavy-chain constant region; LA-2 light-chain variable region, as the VL of m3; light-chain constant region; Heavy and light chains are made from one transcript with a T2A element between them; residues of T2A may remain on the chains; also called LA-2 antibodies; source: transgenic Mus musculus (knock-in proximal to the albumin …)
[4]
  binding result: binds
